The source of these data is US20250101091A1 (Eli Lilly, published 2025).

What is called Kd is the free concentration of one partner at which half of the binding sites on the other are occupied at equilibrium, for simple one-to-one binding.

The target of one assay is T1, TGFα (human, UniProt P01135 40-89).
T1 construct: Bought reagent, biotinylated in the ELISA; also called TGFA; transforming growth factor alpha
Kind of assay: ELISA: biotinylated ligand (20 nM) captured on neutravidin plate, antibody titrated 1:3, anti-human kappa-AP detection, OD405 [panel A]. A general note: An ELISA detects its analyte on a solid surface through an enzyme-linked reagent.

The target in a further assay is T2, EGF (human, UniProt P01133 971-1023).
T2 construct: Bought reagent, biotinylated in the ELISA; also called epidermal growth factor
The description is as above.

For the next assay, the target named is T3, human Epigen (human, UniProt Q6UW88 53-104, limits assumed).
T3 construct: Bought reagent, biotinylated in the ELISA; also called EPGN
The description is as above.

A further assay concerns the target T4, Amphiregulin (human, UniProt P15514 101-198).
T4 construct: Bought reagent, biotinylated in the ELISA; also called AREG
T4 sequence (looked up): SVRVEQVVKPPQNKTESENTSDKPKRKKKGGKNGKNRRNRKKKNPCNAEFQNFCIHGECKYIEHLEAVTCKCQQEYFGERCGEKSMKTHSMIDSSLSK
The assay is described as above.

A further assay has as its target T5, Betacellulin (human, UniProt P35070 32-111).
T5 construct: Bought reagent, biotinylated in the ELISA; also called BTC
T5 sequence (looked up): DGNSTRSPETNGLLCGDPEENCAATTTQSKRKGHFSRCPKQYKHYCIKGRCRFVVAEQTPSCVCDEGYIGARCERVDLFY
Described as above.

Another assay addresses T6, HB-EGF (human, UniProt Q99075 63-148).
T6 construct: Bought reagent, biotinylated in the ELISA
The assay is described as above.

The target of assay [1] is T7, Cleaved rat epiregulin (rat, UniProt Q9Z0L5 56-101). Kind of assay: MSD-SET solution equilibrium titration, 37 C, pH 7.4.
Protocol: (§1) An MSD SI6000 instrument (Meso Scale Discovery, Rockville, MD) is used for reading MSD plates. MSD assay plates are prepared as follows. A multi-array 96-well plate (Meso Scale Discovery, P/N L15XA-3) is coated overnight at 2-8° C. with 30 μl of a 1 μg/ml solution of a monomeric Fc-human epiregulin fusion in PBS. Plates are washed 3× in PBST following coating, then blocked for 1 hour at room temperature with shaking in 3% Blocker A (diluted in PBS from 5% Blocker A, Meso Scale Discovery, P/N R93AA-1).
(§2) SET samples are prepared in 1% Blocker A at pH 6.0 and at pH 7.4. Antibody is diluted to either 20 and 200 μM (pH 7.4) or 200 μM and 2 nM (pH 6.0). Epiregulin is serially diluted for a total of 12 dilutions centered around 2× the antibody concentration. This is accomplished by using starting concentrations of 10 and 100 nM (pH 7.4) or 100 nM and 1000 nM (pH 6.0) which are then 10× diluted once, 2× serially diluted 9 times, and then 10× diluted for the final dilution. Epiregulin titrations and fixed concentration antibody solutions are combined 1:1 to prepare the SET solutions. SET solutions are incubated at 37° C. for approximately 96 hours to allow binding to reach equilibrium. […] The plate is then washed 3× with PBST, then 100 μl of 1× Read Buffer T (diluted in water from 4× Read Buffer T, Meso Scale Discovery, P/N R93AA-1) is added before reading the plate. […]
In assay [2] the target is T7, Cleaved rat epiregulin. Kind of assay: MSD-SET solution equilibrium titration, 37 C, pH 6.0.
Protocol: as §1, §2
In assay [3] the target is T7, Cleaved rat epiregulin. Put plainly: cell-based or functional assay.

Protocol for Amphiregulin: (§3) ELISA assays can be run as follows. […] After blocking, plates are washed 3 times with PBS plus 0.05% Tween20 to remove residual blocking buffer. […] Ligands are transferred to blocked assay plate and incubated at room temperature for 1 hour. The assay plate is washed 3 times with PBS plus 0.05% Tween20. […] The assay plate is washed 3 times with PBS plus 0.05% Tween20. […] The assay plate is washed 3 times with PBS plus 0.05% Tween20.
Protocol for Betacellulin: as §3
Protocol for HB-EGF: as §3
Protocol for TGFα: as §3
Protocol for human Epigen: as §3

B1: Antibody 1 (antibody, human IgG4 S228P, kappa, F234A L235A, V domains shown)
VH: QVQLQESGPGLVKPSETLSLTCTVSGGSISSYYWSWIRQPAGKGLEWIGRIYPSGNTNYNPSLKSRVTISVDTSKNQFSLKLSSVTAADTAVYYCARGGLVMDVWGQGTLVTVSS
VL: EIVLTQSPGTLSLSPGERATLSCRASQSVEFSYLAWYQQKPGQAPRLLIYGASSRATGIPDRFSGSGSGTDFTLTISRLEPEDFAVYYCHQYGTNPFTFGQGTKVEIKR
notes: Fully human IgG4 (S228P, F234A/L235A by EU index, C-terminal Lys deleted), kappa light chain
For B1, the binding result in the assay with TGFα, with EGF, in the assay with human Epigen, in the assay with Amphiregulin, with Betacellulin and with HB-EGF was “no binding (tested: 10 ug/mL)” each time. In addition, the Kd with Cleaved rat epiregulin [1] was 0.0302 nM; with Cleaved rat epiregulin [2], 0.286 nM. Also, the “IC50, neutralization of epiregulin induced luciferase reporter activity in C166-AP1-Luciferase cells” value with Cleaved rat epiregulin [3] amounted to 2.5 nM.
